How the values were obtained:
[1] = In-vivo stability and clearance of IMP 224; set-up: species or system mouse
Method: Kits were reconstituted with 4 mCi In-111 in 0.5 mL water. The In-111 kit was incubated at room temperature for 10 min and then diluted with 0.5 mL of the cold indium containing 0.5 M pH 7.2 acetate buffer.

[2] = Biodistribution of In-111 IMP 224 in BALB/c mice; type: in vivo
Method: Kits were reconstituted with 400 μCi In-111 in 0.5 mL water.

GW-39 tumor xenografts = experiment: Pretargeting: I-125 F6 × 734-F(ab′)2, 72 h later In-111-IMP-224, biodistribution

COc1cccc2c1C(=O)c1c(O)c3c(c(O)c1C2=O)C[C@@](O)(C(CO)=NNc1ccc(C(=O)N[C@@H](CCCCNC(=O)CN(CCN(CCN(CC(=O)O)CC(=O)O)CC(=O)O)CC(=O)O)C(=O)N[C@@H](Cc2ccc(O)cc2)C(=O)N[C@@H](CCCCNC(=O)CN(CCN(CCN(CC(=O)O)CC(=O)O)CC(=O)O)CC(=O)O)C(N)=O)cc1)C[C@@H]3O[C@H]1C[C@H](N)[C@H](O)[C@H](C)O1 [IMP 224, Dox = N—NH—C6H4—CO-Lys(DTPA)-Tyr-Lys(DTPA)-NH2]
Activity Recovered ([1]; Serum, 30 min, Animal #1): 1.92 µCi
Activity Recovered ([1]; Serum, 30 min, Animal #2): 3.64 µCi
Activity Recovered ([1]; Serum, 1 hr, Animal #1): 1.21 µCi
Activity Recovered ([1]; Serum, 1 hr, Animal #2): 1.27 µCi
Activity Recovered ([1]; Urine, 30 min, Animal #1): 220 µCi
Activity Recovered ([1]; Urine, 30 min, Animal #2): 133 µCi
Activity Recovered ([1]; Urine, 1 hr, Animal #1): 41.1 µCi
Activity Recovered ([1]; Urine, 1 hr, Animal #2): 273 µCi
dose excreted ([1]; mouse, urine, 400 uCi, read-out: renal excretion): ~100%
integrity of excreted peptide (reverse phase HPLC) ([1]; urine): excreted intact in the urine
antibody binding of urine activity (size exclusion HPLC) ([1]; urine, 30 min and 1 hr): could still bind to the antibody
tissue uptake at 0.5 h ([2]; BALB/c, mouse, 20 uCi, total radioactivity, Blood, 30 min): 1.44 ± 0.28 %ID/g
tissue uptake at 1 h ([2]; BALB/c, mouse, 20 uCi, total radioactivity, Blood, 1 hr): 0.54 ± 0.12 %ID/g
tissue uptake at 2 h ([2]; BALB/c, mouse, 20 uCi, total radioactivity, Blood, 2 hr): 0.12 ± 0.01 %ID/g
tissue uptake at 4 h ([2]; BALB/c, mouse, 20 uCi, total radioactivity, Blood, 4 hr): 0.1 ± 0.01 %ID/g
tissue uptake at 24 h ([2]; BALB/c, mouse, 20 uCi, total radioactivity, Blood, 24 hr): 0.02 %ID/g
tissue uptake at 0.5 h ([2]; BALB/c, mouse, 20 uCi, total radioactivity, Kidney, 30 min): 8.45 ± 1.79 %ID/g
tissue uptake at 1 h ([2]; BALB/c, mouse, 20 uCi, total radioactivity, Kidney, 1 hr): 5.36 ± 1.01 %ID/g
tissue uptake at 2 h ([2]; BALB/c, mouse, 20 uCi, total radioactivity, Kidney, 2 hr): 3.75 ± 0.52 %ID/g
tissue uptake at 4 h ([2]; BALB/c, mouse, 20 uCi, total radioactivity, Kidney, 4 hr): 4.03 ± 0.45 %ID/g
tissue uptake at 24 h ([2]; BALB/c, mouse, 20 uCi, total radioactivity, Kidney, 24 hr): 2.12 ± 0.17 %ID/g
tissue uptake at 0.5 h ([2]; BALB/c, mouse, 20 uCi, total radioactivity, Liver, 30 min): 0.57 ± 0.04 %ID/g
tissue uptake at 1 h ([2]; BALB/c, mouse, 20 uCi, total radioactivity, Liver, 1 hr): 0.31 ± 0.03 %ID/g
tissue uptake at 2 h ([2]; BALB/c, mouse, 20 uCi, total radioactivity, Liver, 2 hr): 0.17 ± 0.03 %ID/g
tissue uptake at 4 h ([2]; BALB/c, mouse, 20 uCi, total radioactivity, Liver, 4 hr): 0.17 ± 0.01 %ID/g
tissue uptake at 24 h ([2]; BALB/c, mouse, 20 uCi, total radioactivity, Liver, 24 hr): 0.13 ± 0.02 %ID/g
tissue uptake at 0.5 h ([2]; BALB/c, mouse, 20 uCi, total radioactivity, Lungs, 30 min): 1.61 ± 0.34 %ID/g
tissue uptake at 1 h ([2]; BALB/c, mouse, 20 uCi, total radioactivity, Lungs, 1 hr): 0.99 ± 0.26 %ID/g
tissue uptake at 2 h ([2]; BALB/c, mouse, 20 uCi, total radioactivity, Lungs, 2 hr): 0.25 ± 0.02 %ID/g
tissue uptake at 4 h ([2]; BALB/c, mouse, 20 uCi, total radioactivity, Lungs, 4 hr): 0.17 ± 0.02 %ID/g
tissue uptake at 24 h ([2]; BALB/c, mouse, 20 uCi, total radioactivity, Lungs, 24 hr): 0.09 ± 0.02 %ID/g
tissue uptake at 0.5 h ([2]; BALB/c, mouse, 20 uCi, total radioactivity, Muscle, 30 min): 0.51 ± 0.19 %ID/g
tissue uptake at 1 h ([2]; BALB/c, mouse, 20 uCi, total radioactivity, Muscle, 1 hr): 0.21 ± 0.08 %ID/g
tissue uptake at 2 h ([2]; BALB/c, mouse, 20 uCi, total radioactivity, Muscle, 2 hr): 0.03 ± 0.02 %ID/g
tissue uptake at 4 h ([2]; BALB/c, mouse, 20 uCi, total radioactivity, Muscle, 4 hr): 0.02 %ID/g
tissue uptake at 24 h ([2]; BALB/c, mouse, 20 uCi, total radioactivity, Muscle, 24 hr): 0.01 %ID/g
tissue uptake at 0.5 h ([2]; BALB/c, mouse, 20 uCi, total radioactivity, Spleen, 30 min): 0.57 ± 0.18 %ID/g
tissue uptake at 1 h ([2]; BALB/c, mouse, 20 uCi, total radioactivity, Spleen, 1 hr): 0.27 ± 0.06 %ID/g
tissue uptake at 2 h ([2]; BALB/c, mouse, 20 uCi, total radioactivity, Spleen, 2 hr): 0.12 ± 0.01 %ID/g
tissue uptake at 4 h ([2]; BALB/c, mouse, 20 uCi, total radioactivity, Spleen, 4 hr): 0.11 ± 0.01 %ID/g
tissue uptake at 24 h ([2]; BALB/c, mouse, 20 uCi, total radioactivity, Spleen, 24 hr): 0.07 %ID/g
tissue uptake at 0.5 h ([2]; BALB/c, mouse, 20 uCi, total radioactivity, Stomach, 30 min): 0.61 ± 0.07 %ID/g
tissue uptake at 1 h ([2]; BALB/c, mouse, 20 uCi, total radioactivity, Stomach, 1 hr): 0.15 ± 0.07 %ID/g
tissue uptake at 2 h ([2]; BALB/c, mouse, 20 uCi, total radioactivity, Stomach, 2 hr): 0.05 ± 0.01 %ID/g
tissue uptake at 4 h ([2]; BALB/c, mouse, 20 uCi, total radioactivity, Stomach, 4 hr): 0.06 ± 0.02 %ID/g
tissue uptake at 24 h ([2]; BALB/c, mouse, 20 uCi, total radioactivity, Stomach, 24 hr): 0.04 ± 0.02 %ID/g
tissue uptake at 0.5 h ([2]; BALB/c, mouse, 20 uCi, total radioactivity, Tail, 30 min): 3.66 ± 0.43 %ID/g
tissue uptake at 1 h ([2]; BALB/c, mouse, 20 uCi, total radioactivity, Tail, 1 hr): 1.9 ± 0.09 %ID/g
tissue uptake at 2 h ([2]; BALB/c, mouse, 20 uCi, total radioactivity, Tail, 2 hr): 0.46 ± 0.09 %ID/g
tissue uptake at 4 h ([2]; BALB/c, mouse, 20 uCi, total radioactivity, Tail, 4 hr): 0.24 ± 0.03 %ID/g
tissue uptake at 24 h ([2]; BALB/c, mouse, 20 uCi, total radioactivity, Tail, 24 hr): 0.58 ± 0.22 %ID/g
excreta dose per gram or mL at 2 h ([2]; BALB/c, mouse, 20 uCi, total radioactivity, Urine, 2 hr): 19.1 %ID/g
excreta dose per gram or mL at 4 h ([2]; BALB/c, mouse, 20 uCi, total radioactivity, Urine, 4 hr): 1.72 ± 0.67 %ID/g
excreta dose per gram or mL at 24 h ([2]; BALB/c, mouse, 20 uCi, total radioactivity, Urine, 24 hr): 0.42 ± 0.18 %ID/g
tissue uptake at 0.5 h ([2]; BALB/c, mouse, large intestine, 20 uCi, total radioactivity, Large Int., 30 min): 0.59 ± 0.43 %ID/g
tissue uptake at 1 h ([2]; BALB/c, mouse, large intestine, 20 uCi, total radioactivity, Large Int., 1 hr): 0.18 ± 0.04 %ID/g
tissue uptake at 2 h ([2]; BALB/c, mouse, large intestine, 20 uCi, total radioactivity, Large Int., 2 hr): 0.38 ± 0.15 %ID/g
tissue uptake at 4 h ([2]; BALB/c, mouse, large intestine, 20 uCi, total radioactivity, Large Int., 4 hr): 0.3 ± 0.06 %ID/g
tissue uptake at 24 h ([2]; BALB/c, mouse, large intestine, 20 uCi, total radioactivity, Large Int., 24 hr): 0.08 ± 0.03 %ID/g
tissue uptake at 0.5 h ([2]; BALB/c, mouse, small intestine, 20 uCi, total radioactivity, Small Int., 30 min): 0.72 ± 0.08 %ID/g
tissue uptake at 1 h ([2]; BALB/c, mouse, small intestine, 20 uCi, total radioactivity, Small Int., 1 hr): 0.37 ± 0.19 %ID/g
tissue uptake at 2 h ([2]; BALB/c, mouse, small intestine, 20 uCi, total radioactivity, Small Int., 2 hr): 0.09 ± 0.01 %ID/g
tissue uptake at 4 h ([2]; BALB/c, mouse, small intestine, 20 uCi, total radioactivity, Small Int., 4 hr): 0.09 ± 0.03 %ID/g
tissue uptake at 24 h ([2]; BALB/c, mouse, small intestine, 20 uCi, total radioactivity, Small Int., 24 hr): 0.05 ± 0.01 %ID/g
% ID/g ([2]; Urine, 30 min): 1553 % ID/g
% ID/g ([2]; Urine, 1 hr): 1400 ± 421 % ID/g
% ID/g tissue (GW-39 tumor xenografts; GW-39, 1 h): 10.3 ± 1.7 % ID/g
% ID/g tissue (GW-39 tumor xenografts; GW-39, 4 h): 11.0 ± 2.0 % ID/g
% ID/g tissue (GW-39 tumor xenografts; GW-39, 24 h): 9.7 ± 1.1 % ID/g

From patent US20060140858A1, “Drug pre-targeting by means of bi-specific antibodies and hapten constructs comprising a carrier peptide and the active agent(s)” (Immunomedics, Inc., priority 2002, published 2006)
